Assay results as given in patent US20120282257A1.

How the values were obtained:
[1] = target: human CD99 on live/intact cells (human) (UniProt P14209); test: flow cytometry, live H-825 cells (Ewing sarcoma)
[2] = target: human CD99 on live/intact cells (human) (UniProt P14209); test: flow cytometry, live SKES-1 cells (Ewing sarcoma)
[3] = target: human CD99 on live/intact cells (human) (UniProt P14209); test: flow cytometry, live HSSC163 cells (mesenchymal)
[4] = target: human CD99 on live/intact cells (human) (UniProt P14209); test: flow cytometry, PBMC
[5] = target: human CD99 on live/intact cells (human) (UniProt P14209); test: flow cytometry, live MOS cells (osteosarcoma)
[6] = target: human CD99 on live/intact cells (human) (UniProt P14209); test: flow cytometry, live U2-OS cells (osteosarcoma)
[7] = target: human CD99 on live/intact cells (human) (UniProt P14209); test: flow cytometry, live RD-ES cells (Ewing sarcoma)
[8] = target: human CD99 on live/intact cells (human) (UniProt P14209); test: flow cytometry, live HSSC168 cells (mesenchymal)
[9] = target: human CD99 on live/intact cells (human) (UniProt P14209); test: flow cytometry, live TC-71 cells (Ewing sarcoma)
[10] = target: human CD99 on live/intact cells (human) (UniProt P14209); test: flow cytometry, live MG-63 cells (osteosarcoma)
[11] = target: human CD99 on live/intact cells (human) (UniProt P14209); test: flow cytometry, live RM-82 cells (Ewing sarcoma)
[12] = target: human CD99 on live/intact cells (human) (UniProt P14209); test: flow cytometry, live IOR/OS7 cells (osteosarcoma)

Sequence of UniProt P14209 (P14209 23-185): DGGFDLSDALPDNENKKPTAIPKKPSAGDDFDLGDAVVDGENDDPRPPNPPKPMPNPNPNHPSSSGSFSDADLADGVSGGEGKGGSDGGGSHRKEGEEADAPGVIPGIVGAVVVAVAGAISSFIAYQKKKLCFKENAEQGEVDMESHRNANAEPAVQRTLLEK

## mAbO13 (antibody)
[1]
  percent of cells positive: 75 to 100%
[2]
  percent of cells positive: 75 to 100%
[3]
  percent of cells positive: 50 to 75%
[4]
  percent of cells positive: 75 to 100%
[5]
  percent of cells positive: 75 to 100%
[6]
  percent of cells positive: 50 to 75%
[7]
  percent of cells positive: 75 to 100%
[8]
  percent of cells positive: 75 to 100%
[9]
  percent of cells positive: 75 to 100%
[10]
  percent of cells positive: 75 to 100%
[11]
  percent of cells positive: 75 to 100%
[12]
  percent of cells positive: 75 to 100%
